Experimental data: patent US20130115589A1, “Pharmaceutical Composition for Treatment and Prevention of Herpes Virus Infections” (THE UNIVERSITY OF TOKYO, priority 2010, published 2013)

Molecular target: gB of HSV-1 (Human herpesvirus 1, UniProt P06436)
Details: 293T cells

B1: NMHC-IIBrod-Ig: fusion protein of Ig and the C-terminal fragment of NMHC-IIB, soluble form of NMHC-IIB (protein)
chain: FAQSKESEKKLKSLEAEILQLQEELASSERARRHAEQERDELADEITNSASGKSALLDEKRRLEARIAQLEEELEEEQSNMELLNDRFRKTTLQVDTLNAELAAERSAAQKSDNARQQLERQNKELKAKLQELEGAVKSKFKATISALEAKIGQLEEQLEQEAKERAAANKLVRRTEKKLKEIFMQVEDERRHADQYKEQMEKANARMKQLKRQLEEAEEEATRANASRRKLQRELDDATEANEGLSREVSTLKNRLRRGGPISFSSSRSGRRQLHLEGASLELSDDDTESKTSDVNETQPPQSE
modifications: left off: a dimerising Fc or GST; small tags and cut ends
- staining of cells expressing gB on their surface: stained
